From the nanobody polyreactivity screen of Harvey et al. (2022) come the findings set out here.

This data set can be described thus: yeast display, Sf9 membrane polyspecificity reagent, FACS + sequencing; frameworks hold sequencing errors. The gist of the method: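 Genes from sorted yeast were amplified by colony PCR, read by MiSeq 2 × 250 sequencing and filtered on CDR length. These cells carried a synthetic nanobody library in Saccharomyces cerevisiae BJ5465 and were sorted by FACS into low and high (top ~1%) gates on anti-HA and streptavidin fluorescence. Polyreactivity is labelled according to the gate of origin.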
As to “QDQLVESGGGLVQAGGSLRLSCAASGSIFGVNDMGWYRQGAGKERELVAGINQGGGSTYYADSVKGRFTISRDNAKNSVYLQMNSLKPEETAVYYCAAVRYVLRSPARYGYWGQGTQVTVSS”, the “polyreactivity (PSR sort gate)” value is on record as “low polyreactivity”.
Under “QVQLVESGGGLVQAGGSLRLSCAASGSIFPDNAMRWYRQAPGKERELVAAITRGGSTYYADSVKGRFTISRDNAKNTVYLQMNSLKPEDTAVYYCAARRRYLWSYDYWGQGTQVTVSS” stands “high polyreactivity”; under “QDQLVESGGGLVQAGGSLRLSCAASGNNFFPYAMGWYRQAPGTEREFVAAINWSGGSTYYADSVKGRFTISRDNAKNTVYLQMNSLKPEDTAVYYCAASSGKWGHGYWGQGTQVTVSS”, “high polyreactivity”; under “QVQLVESGGGLVQAGGSLRLSCAASGLTFPTYAMRWYRQAPGKERELVAAISRIGGRTYYADSVKGRFSISRDNAKNTVYLQMNSLKPEDTAVYYCAADGIKGGVEYDYWGQGTQVTVSS”, “high polyreactivity”.
Turning to “QGQLVESGGGLVQAGGSLRLTCAASGITFDDYAMGWYRQAPGKERELVAAISWSGDITYYADSVKGRFTSSRDNATNTVYLQMNSLKPEDTAVYYCAADLSPYGYDYWGQGTQVTVSS”, the “polyreactivity (PSR sort gate)” value is “low polyreactivity”.
For “QVQLVESGGGLVQAGGSLRLSCAASGRIFTRYVMGWSRQAPGKERELVAAISYRGGRTYYADSVKGRFTISRDNAKNTVYLQMNSLKPEDTAVYYCAVDYTLADVIYDYWGQGTQVTVSS”, the “polyreactivity (PSR sort gate)” value is given as “high polyreactivity”.
With “QVHLVESGGGLVQAGGSLRLSCAASGGTFQDYTMGWYRQAPGKEREFVAAISLSGTRTYYADSVKGRFTISRDNAKNTVYFQMNSLKPEDSAVYYCSTSGPQYYSRNFDYWGQATQVTVSS” the entry was “low polyreactivity”; with “QVQLVESGGGLVQAGGSLRLSCAASGRTFPSYAMGWYRQAPGKERELVAAITTSGGSTYYADSVKGRFTISRDNAKNTVYLQMNSLKPEDTAVYYCAAAKPYSGSQYYYWGQGTQVTVSS”, “high polyreactivity”; with “QVQLVESGGGLDQAGGSLRLSCAASGGIFYHNAMGWYRQAPGKERELVAVISWSRTRTYYADSVKGRFTISRDNAKNTVYLQMNILTPDDTAVYYCAASPDPYWVRMDYWGQGTQVNVSS”, “high polyreactivity”.
With “QVQIVESGGGLVQAGGSLRLSCAASGSNFLFYVMGWYTQAPVKERELVAAINTGVSTNYADSVKGRFTISRDNAKNTVYLQLNSLKPEDTAVYYCNALPYTSDGRGGYWGQGSQVTVSS” the entry was “low polyreactivity”; with “QVQLVESGGGLVQAGGSLRLSCAASGSIFYLYAMGWYRQAPGKERELVATITRGGSTNYADSVKGRFRISRDNAKNTDYVQMNSLKPEDTARYYCNARFFKPPYSKWSSRFDYWGQGTQVTVSS”, “high polyreactivity”.
Consider “QVQLVESGGGLVQAGGSLRLSCAASGRILPWYAMGWYRQEPGKERELVARIRSTDSSNYADSVKGRFTISRDNAKNTVYLQMNSLKPEDTAFYYCAKVQWGFPYAWLGSDYWGQGTQVTVSS”, for which the “polyreactivity (PSR sort gate)” value is “low polyreactivity”.
Under “QDQLVDSGGGLVQAGGSLRLSCAASGSIYDPYAMGWYRQAPGKERELVATIDWDDASTYYADSVKGRFTISRDNAKNTVYLQMNSLKPEDTAVYYCATRDRAGYYYWGQGTQVTVSS” stands “high polyreactivity”.
For “QVQLVESGGGLVQAGGTLRLSCADSGSTIRNYAMGWYRQAPGKERELVATISASGGSTYYADSVKGRFTISRDNAKNTVYLQLNSLKPEDTAVYYCNAVVKLWGLVIPPGDYDYWRQGTQVTVSS”, the “polyreactivity (PSR sort gate)” value was “high polyreactivity”.
As to “QVQLVESGGGLVQAGGSLRLSCAASGSTFRKYVMGWYRQAPGKERELDAGITSRGGSTYYADSVKGRFTISRDNAKNTVYLQMNSLKPEDSAVYYCAKRAYGTALYRGYGYWGQGTQVPVSS”, the “polyreactivity (PSR sort gate)” value was “low polyreactivity”.
With “QVQLVESGGGLVQAGGSLRLSCAASGSTFRDNAMGWYRQAPGKERELVAAISRSGARTYYADSVKGRFTISRDNAKNTVYLQMNSLKPEDTAVYYCNAVWRVKYRRGLDYWGQGTQVTVSS”, the “polyreactivity (PSR sort gate)” value is “high polyreactivity”.
Under “QVQLVESGGGLVQAGGSLRLSCAASGSILRYYAKGWYRQAPGKERELVASINWSGGSTYYADSVKGRFTISRDNAKNTVYLQMNSLKPEDTAVYYCAARRRSAEYNYWGQGTQVTVSS” stands “high polyreactivity”.
With “QVQLVESGGGLVQAGGSLRLSCAASGRTIYGYAMGWYRQAPGKERELVARIRSGGSTNYADSVKGRFTISRDNAKNTVYLQMNSLKPEDTAVYYCAARPGAAGYKYYYWGQGTQVTVSS” the entry was “high polyreactivity”; with “QVQLVESGGGLVQAGGSLRLSCAASGSTLGSNAMGWYRQAPGKERELVAAITWSGGTTYYADSVKGRFTISRDNAKNTVYLQMNSLKPEDTAVYYCATGQSVIYRYEYWGQGTQVSVSS”, “low polyreactivity”.
Under “QVQLVESGGGLVQAGGSLRLSCAASGITFFYNAMGWYRQAPGKERELVADITNSGSTYYADSVKGRFTISRDNAKNTVYLQMNSLKPEDTAVYYCAAGQAYDYFVYYPDDYWGQGTQVTVSS” stands “low polyreactivity”.
Regarding “QVQLVESGGGLVQAGGSLRLSCAASGRTFGTNAMGRYRKAPGKERELVAAITWRGGSTSYADSEKGRFTISRDNAKNSVYFQMNSLKPEDPAVYYCAVRLRYPGNTFYYLGQGTQVTVSS”, the “polyreactivity (PSR sort gate)” value was “high polyreactivity”.
Consider “QVQLVESRGVLVQAGGSLRLSCAGSGSTILRYALGWYRQAPGKERELVAAINWSGGGTSYADSVKGRFTISRDNAKNTVYFQMNSLKPEDTAVYYCAAYFRYSNYWSEYWGQGTQVTVSS”, for which the “polyreactivity (PSR sort gate)” value was “high polyreactivity”.
With “QVQLVESGGGLVQAGGSLRLSCAASGTTISANAMGWYRQAPGKERELVAAIRWSDGRTYYADSVKGRFTISRDNAKNTVYLQMNSLKPEDTAVYYCNRVLSYHRHKLGMGYWGQGTQVTVSS” the entry was “high polyreactivity”; with “QVQLVESGGGLVQAGGSLRLSCAASGSIFNGYDMGWYRQAPWKERELVAAISLSGDSTYYADSVKGRFTISRDNAKNTVYLQMNSLKPEDTAVYYCAKGTISSYSPYWYYDYSDYEYWGQGTQVTVSS”, “low polyreactivity”.
“QVQLVESGGGLVQAGGSLRLSCADSGSILVAKGMGWYRQAPGKESELVAGITTRGGNTYYADSVKGRFTISRDNAKNTVYLQMNSLKPEDTAVYYCAADHLSYRRRYEYWGQGTQVTVSS”: the “polyreactivity (PSR sort gate)” value is “low polyreactivity”.
Under “QVQLVESGGGLVQAGGSLRLSCAASGFTLYRYAMGWYIQAPGKERELVAAISKRGASSYYADSVKGRFTISRDNAKNTVYLQMNSLKPEDTAVYYCAATISRAYKPVKGHYYLGMDYWGQGTQVTVSS” stands “high polyreactivity”; under “QVQLVESGGGLVQAGGSLRLSCAASGLIFWAYAMGWYRQAPGKERELVAAINSGGRTYYADSVKGRFTISRDNAKNTVYLQMNSLKPEDTAVYYCAAAGVYSSDYWGQGTQVTVSS”, “low polyreactivity”; under “QVQLLESGGGLVEAGGSLRLSCSASGSTYNAMGWYRQATGKEREFVAYITTGGGGTYYADSVKGRFTISRDNAKNTVYLQMNSLKPEETADYYCAAEDYRTRTYVYRYRYYFWGQGTQVTVAS”, “high polyreactivity”.
Under “QVQLVESGGGLVQAGGSLRLSCAASGSIFKRNAMGWYRQAPGKERQLVASISWSGSRTYYADSVKGRFTISRDNAKNTVYLQMISLKPEDTAVYYCARRIYGGHPSQSTQGDFYYWGQGTQVTVSS” stands “high polyreactivity”; under “QVQLVESGGGLVQAGGSLRLSCAASGRIFNTYAMGWYRQAPAKERELVAAITSSGGSTYYADSVKGRFTISRDNAKNTVYLQMNSLKPEDTAVYYCNAGSLHRRYYYEGDYWGQGTQVTVSS”, “high polyreactivity”.
With “QVQLVESGGGLVQAGGSLRLSCAASGRIFALNVMGWYRQAPGKERELVAAITWSSGRTYYADSVKGRFTISRDNAKNTVYLQMNSLKPEDTAVYYCAAAFRPRAIELSYYYWGQGTQVTVSS” the entry was “high polyreactivity”.
In the case of “QVQLQESGGGLVQAGGNPRLSCAASGNSSWSAHMGWYRQTPGKERELVASNTAGTSTNYADSVKGRFTISRDNAKNTVYLQMNSLKPEDTAVSYCATLGYFSASRTDYDYWGQGTQVTVSS”, the “polyreactivity (PSR sort gate)” value is “low polyreactivity”.
Under “QVQLVESGGGLVQAGGSLRLSCAASGRTFSKNVMGWYRQAPGKEREFVARISDSGVGTYYADSVKGRFTISRDNAKNTVYLQMNSLKPEDTAVYYCAAAVWYRGWYRYDYWGQGTQVTVSS” stands “low polyreactivity”; under “QVQLVESGGGLVQAGGSLRLSCAASGYTFSDYAMGWYRQAPGKERELVAAISWSGGSTYYADSVKGRFTISRDNAKNTVFLQMNSLKPEDTAVYYCAAKWYAPDLLYYYWGQGTQVTVSS”, “low polyreactivity”.
With “QVQLVESGGGLVQAGGSLRLSCAASGRIFLTYAMGWYRQAPGKERELVAAISTSGTRTYYADSVKGRFTISRDNAKNTVYLQMNSLKPEDTAVYYCAREKYNYRTYEYWGQGTQVTVSS” the entry was “high polyreactivity”.
On to “QVQLVESGGGLVQAGGSLRLSCAASGYIFAYYAMGWYRQAPGKERELVATIRSGGSTNYADSVKGRFTISRDNAKNTGYLQMNILKPEDTAVYYCARDDATACDYWGQGSQVTVSS”, for which the “polyreactivity (PSR sort gate)” value is recorded as “low polyreactivity”.
With “QVQLVESGGGLVQAGGSLRLSCAASGRIFTWSTMGWYRQAAGTERELVAAINRGGSTTYADSVKGRFTISRDNAKNTVYLQMNSLKPEDTAVYYCAAYRSTSRVYSNWRGYDYWGQGTQVTVSS” the entry was “high polyreactivity”.
Under “QVQLVESGGGLVQAGGSLRLSCAASGFTFRWYTMGWYRQAPGKERELVASIRYGGGSTYYADSVKGRFTISRDNAKNTVYLQMNSLNPEDTAVYYCAAESAWTSPYDYWGQGTQVTVSS” stands “high polyreactivity”; under “QVQLVESGGGLVQAGGSLRISCAASGLIFRHNAMGWYRQAPGKERELVAAITGSGSTYYADSEKGRFTISRDNAKNTVYLQMNSLKPEDTAVYYGNADYPGGLQEEDYWGQGTQVTVSS”, “low polyreactivity”.
With “QVQLVESGGGLVQAGGSLRLSCAASGIILYRYAMGWYRPAPGKERELVAAISRSGGNTYYADSVKGRFTISRDNAKNTVYLQMNSLKPEDTAVYYCAAKPLQGVRRVEYWGQGTQVTVSS” the entry was “high polyreactivity”.
Consider “QVQLVESGGGLVQAGGSLRLSCAASGNIFRNNAMGWYRQAPGKERELVAAISYSGGRTYYADSVKGRFTISRDNAKNTVYLQMNSLKPEDTAVYYCAVTYGRNADDYEYWGQGTQVTVSS”, for which the “polyreactivity (PSR sort gate)” value is listed as “high polyreactivity”.
